Test results reported in patent US20120251581A1.

Biological target: recombinant CypA (UniProt P62937)
Assay: cell-based or functional assay

Sequence of recombinant CypA (P62937 whole entry): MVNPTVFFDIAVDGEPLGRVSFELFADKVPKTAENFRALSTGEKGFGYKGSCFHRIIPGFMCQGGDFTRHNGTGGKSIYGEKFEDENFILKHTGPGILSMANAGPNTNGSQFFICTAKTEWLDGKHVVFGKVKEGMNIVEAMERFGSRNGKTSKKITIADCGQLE

| CypA PPIase IC50 [nM] | Substance |
| --- | --- |
| 9.7 | Cyclosporine A, 1 (peptide) |
| 0.8 | DEBIO-025, 2 (peptide) |
